Results published in the nanobody polyreactivity screen of Harvey et al. (2022).

experiment: yeast display, Sf9 membrane polyspecificity reagent, FACS + sequencing; frameworks hold sequencing errors
How it was run: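 Galactose induction of a Saccharomyces cerevisiae BJ5465 synthetic nanobody display library ran 36–48 hours. The cells were then stained for 1 hour at 4 °C with 10% biotinylated, detergent-solubilized Sf9 membrane reagent, pulled down on streptavidin microbeads and FACS-sorted into low and high (top ~1%) gates on expression and reagent-binding fluorescence. Labels for polyreactivity follow the gate of origin.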

Sequence | polyreactivity (PSR sort gate)
QVQLVESGGGLVQAGGSLRLSCAASGFTFGDYAMGWYRQAPGKERELVAAITSTGGSTYYADSVKGRFTISRDNEKHSVYLQMNCLKPEDTAVYYCAKPDYYRMGYWGQGTQVTVCS | low polyreactivity
QVQLVESGGGLVQAGGSLRLSCAASGRTFRGNVMGWYRQAPGKEREFVAAITKSDGSTYYADSVKGRFTISRDNAKNTVYLQMNSLKPEDTAVYYCAARTARTGWPWFRYDYWGQGTQVTVSS | low polyreactivity
QVQLVESGGGLVQAGGSLRLSCAASGSIFYLYAMGWYRQAPGKERELVASISSDGSTNYADSVKGRFTISRDNAKNTVYLQMNSLKPEDTAVYYCAADEGTGQASLSSNLYDYWGQGTQVTVSS | low polyreactivity
QVQLVESGGGLVQAGGSLRLSCAASGSIFSSYAMGWYRQAPGKERELVASISRRGGSTYYADSVKGRFTISRDNAKNTVYLQMNSLKPEDTAVYYCNASGGPYRYYYWGQGTQVTVSS | low polyreactivity
QVQIVESGGALVQAGCSLRLSCAASGSTFWYYVMGWYRQAPGKERELVAAISIVGSTYYADSVKGRFTLSRDNAKNTVYLQMNSLKPEDTAVYYCAADIYQYGYDYWGQGTQVTVSS | low polyreactivity
QVQLVESGGGLVQAGGSLRLSCAASGNTLWRNAMGWYRQAPGKERELVATISSVGTYYADSVKGRFTISRDNAKNSVYFQMNSLKPEDTAVYYCAARIWAFYSRRYFWGQGTQVTVSS | high polyreactivity
QVQLVESGGGLVQAGGSLRLSCAASGRTIRHNAMGWYRQARGKERELVAAISRSGGSTYYADSVKGRFTISRDNAKNTVYLQMNSLKPEDTAVYYCAAGYHIIYTPEYYYWGQGTQVTVSS | high polyreactivity
QVQLVESGGGLVQAGGSLRLSCAASGIIFGYYAMGWSRKAPGKERELVAAISRGGNTNYADSVKGRFTISRDNAKNTVYLQMNSLKPEDTAVYYCAADFWSRIIYFYAVDVDYWGQGTQVTVSS | low polyreactivity
QVQLVESGGGLVKAGGSLRLICDASGRTFYSYAMGWYRQAPGKERELVAAINTSGGRTHYADSVKGRFTISRDNAKYTVYLHMNSLKAEDTAVYYCAAERKNKYDYWGQGTQVTVSS | high polyreactivity
QVQLGESGGGLVQAGGSLRLSCAASGFPFQGNAMGWSRQAPGKERELLAAISYDGGSSYYADSVKGRFTISRDNAKNTVYLQMNSLKPEDTAVYYCAAYVVTWYYYWGQGTQVTLSS | high polyreactivity
QVQLVESGGGLVQAGGSLRLSCAASGFIFYYNAMGWYRQAPGKERELVATIRGSGGSTYYADSVKGRFTISRDNAKNTVYLQMNSLKPEDTAVYYCATTIYGLTSRLYYWGQGTQVTVSS | high polyreactivity
QVQLVESGGGLVQAGGSLRLSCAASGFTLGFYAMAWYRPAPGKERELVAAINWRGGSTYYADSVKGRFTISRYNAKNTVYLQMNSLKPADTAVYYSNRVYRPSLYDYWGQGTQVSVSS | high polyreactivity
QVQLVESGVGLVQAGGSLRLSCAASGSIFFPNAMGWYRQAPGKQRELVAAITSTSTNYAESVKGRCTISRDNAKNTVYLQMNSLKPEDTAVYYCAADGEFRRAWYEGDYWGQGTQVTVSS | low polyreactivity
QVQLVESGGGLVQAGGSLRLSCAASGIIFTDYAMGWYRQAPGKERELVAAISSGGGSTYYADSVKGRFTNSRDYAKNTVYLQMNSLKPEDTAVYYCAAQTSGSYGFDHWGQGTQVTVSS | high polyreactivity
QVQLVESGGGLVQAGGSLRLSCAASGFIFVRYAMGWYRQAPGKERELVAAISSSGGTTNYADSVKGRFTISRDNAKNTVYLQMNSLKPEDTAVYYCAAYVYQTPHSLHIYDYWGQGTQVTVSS | low polyreactivity
QVQLVESGGGLVQAGGSLRLSCAASGFTFVYNAMGWYRQAPGKERELVAAITSGGNTYYADSVKGRFTISRDNAKNTVYLQMNSLKPEDTAVYYCAKVQNGQWSTSRVPGDYQYNYWGQGTQVTVSS | high polyreactivity
QVQLVESGGGLVQAGGSLRLSCAASGSIFYLYAMGLYRQAPGKERELVAAITSIGGSTYADSVKGRFTISRDNAKNTVYLQMNSLKPEDTAVYYCNTDEYPLTVQVQYYYWGQGTQVTVSS | low polyreactivity
QVQLVESGGGLVQAGGSLRLSCAASGRTFQYNAMGWNRQAPGKERELVAAISWSDGITYYADSVKGRFTISRDNAKNTVFLQMNSLKPEDTAVYYCAAEGYGLSYYFPYDYWGQGTQVTVSS | high polyreactivity
QVQLVESGGGLVQAGGSLRLSCAASGNTFVYKDMGWYRQAPGKERELVADIRYSGSTYYADSVKGRFTISRDNAKNTVYLQMNSLKPEDTAVYYCAKAYYVLSWMGYWGQGTQVTVSS | low polyreactivity
QVQLVESGGGLVQAGGSLRLSCAASGRTFDTNAMGWYRQAPGKERELVAGITIGGSTNYADSVKGRFTISRDNAKNTVYLQMNILKPEDTAVYYCAADYGSVRGYAADYYEPEYDYWGQGTQVTVSS | low polyreactivity
QVQLVESGGGLVQAGGSLSLSCAATGSTFAQNAMGWYRQAPGKERELVAAISRRGGSTYYADSVKGRFTISRDNAKNTVYVQMNSLKPEDTAVYYCAADQPVRQHHRDDYWGQGTQVTVSS | low polyreactivity

Sequence | polyreactivity (PSR sort gate)
QVQLVESGGGLVQAGGSLRLSCAASGSIFRWNAMGWYRQAPGKERELVAAIDSGGSTYADSVKGRFTISRDNAKNTVYLQMNSLKPEDTAVYYCAAEIPDEWPYDYWGQGTQVTVSS | low polyreactivity
QVQLVESGGGLVQAGGSLRLSCAASGRTFGIYTMGWYRQAPGKERKLVAAISKRGSSTYYADSVKGRFTISRDNAKNTVYLQMNSLKPEDTAVYYCNARSWYIRGSQEYYYWGQGTQVTVSS | high polyreactivity
QVQLVESGGGLFQAGGSLRLSCAASGRTFYSNDMGWYRQAPGNERELVAAISWRSGSTHYADSVKGRFTISRDNAKNTVYFQMNSLKPEDTAVFYCAARRRDLVPHYYWGQGTQVTVSS | high polyreactivity
QVQLVESGGGLVQAGGSLRLSCAASGFIFYRNTMGWYRQAPGKERELVAANSVSGGSTNYADSVKGRFTISRDNAKNTVYLQMNSLKPEDSAVYYCAARVRDSLVYGGWDDYWGQGTQVTVSS | high polyreactivity
QVQLVESGGGLVQAGGSLGLSCAASGLTFTHYTMGWYRQAPGKERELVAGISQTGGSTYYADSVKGRFTISRDNAKNTVYLQMNSLKPEDTAVYYCSRVFPRPRTGYYYWGQGTQVTVSS | high polyreactivity
QVQLVESGGGLVQEGGSLRLSCAASGSIFYRNAMGWYRQAPGKERELVAAISSDGSTNYADSVKGRFTISRDNAKNTVYLHMNSLKPEDTAVYYCAAPWTQILDYWGQGTQVTVSS | low polyreactivity
QVQLVESGGGIVQAGGRLRLSCAASGYIFDIYAMGWNRQAPGKERELDADITRSGGGTYYADSVKGRFTISRDNAKNTVYLQMNSLKPEDTAVYYCAAESYVYGGSDYDYWGQGTQVTVSS | low polyreactivity
QVQLVESGGGLVQAGGSLRLSCAASGTIFVGYAMGWYRQAPGKERELVAAISWSGGRTYYADSVKGRFTISRDNAKNTVYLQMNSLKPEDTAVYYCAAPRYGGWRSYQKYDYWGQGTQVTVSS | high polyreactivity
QVQLVESGGGLVQAGGSLRLSCAASASTFWKYAMGWYRQAPGKEREFVAAITRSGGNTYYADSVQGRFTISRDNAKNTVFLQMNSLKPEDTAVYYCDKVTTVPYTNDYWGQGTQVTVSS | high polyreactivity
QVQLVESGGGLVQAGGSLRLSCAASGSIFWWNAMGWYRQAPGKERELVASIGDSTYYADSVKGRFTISRDNAKNTVYLQMNSLKPEDTAVYYCYAEVLNYLVFGYQLGYDYWGQGTQVTVSS | low polyreactivity
QVQLVESGGGLVQAGGSLRLSCAASGFISRYYGMGWYRQAPGKERELVAAISWSGGRTHYADSVKGRFTISRDNAKNTVYLQMNSLKPEDTAVYYCATDRYYRPGGEYDYWGQGTQVTVSS | high polyreactivity
QVQLVESGGGLVQAGGSLRLSCAASGFIFRRNAMGWYRQAPGKEREFVAAITWSGGSTYYADSVKGRFTISRDNAKDTVYLQMNSLKPEDTAVYYCAATYSQYWYTKYLNSYPGYDYWGQGTQVTVSS | low polyreactivity
QVQLVETAGGIVQAGGSLRLSCAASGRTNKYYAMGWYRQAPGKEREWVAVISWSGGSTYYADSVKGRFTISRDNAKNTVYLQMNSLKPEETAVYYCAARKRAQQGTRDHDYWGQGTQVTVSS | high polyreactivity
QVQLVESGGVLVQEGGSLRLSCDASGSIFECYAMGWYRQAPGKARELVAYITYNGGSTYYADSVKGRFTISRHNAKKTVYLQMNSLKPEDSAVYYCAAVYFVQVPDYYYASEYGYWGQGTQVTVSS | low polyreactivity
QDQLVESRGVLVQAGGSLRLSCAASGSTFEANAMGWYRQAPGKERELVAVITWTGGSTYYADSVKGRFTISRDNAKNTVYLQMNSLKPEDTAVYYCAADGVVPGRFFWPAHEYDYWGQGTQVTVSS | low polyreactivity
QVQLEESGGGLVQAGGSLRLSCAASGRIFGINALGWYRQAPGQERALVAAISRSGSRTYYADSVKGRFTISRDNAMNTVYLQMNSLKPEDTALYYCNARHQRFYAQPGDYWGQGTQVTVSS | high polyreactivity
QVHLVESGGGLVQAGGSLRLSCAASGIIFYRYAMGWYRQAPGKERELVAAISWRGTSTYYADSVKARFTISRDNANNTVYLQMNSLKPEDTEVYYCNAGVRRKYGEYYYWGQGTQVTVSS | high polyreactivity
QVQLVESGGGLVQAGGSLRISCAASGSTFYLYDMGWYRQAPGKERELVANITSGTSTTYADSVKVRFTISRDNAKNTVYLQMNSLKPEDTAVYYCNATYTSPEYDYWGQGTQVTVSS | low polyreactivity
QVQLVESGGGLVQAGGSLRLSCAASGSIFYQNARGWYRQAPGKERELVAAISISDGSTYYADSVNGRFTISRDNAKNTVYLQMNILKPEDTAVYYCNADSLYYDPYDYWGQGTQVTVSS | low polyreactivity
QVQLVESGGGLVQAGGSLRLSCAASGFIFAYYAMGLYRQAPGKERELVAAITSDGSTYYADSVKGRFTISRDNAKNTVYLQMNSLKPEDTAVYYCNTYWVLRPGYNYWGQGTQVTVSS | high polyreactivity
